Legend:
[1] = biological target: T1, cell surface LINGO-1 in CHO-K1-hLINGO-1 cells (Homo sapiens, UniProt Q96FE5); test: Downregulation of cell surface LINGO-1 (anti-V5 detection, TMB-ELISA); format: cell-based; settings: 100 nM IgG4, 24 hrs at 37° C., CHO-K1-hLINGO-1 cells (FIG. 6A)
T1 construct: expressed in transfected cells
T1 sequence (Q96FE5 34-614 isoform Q96FE5-2): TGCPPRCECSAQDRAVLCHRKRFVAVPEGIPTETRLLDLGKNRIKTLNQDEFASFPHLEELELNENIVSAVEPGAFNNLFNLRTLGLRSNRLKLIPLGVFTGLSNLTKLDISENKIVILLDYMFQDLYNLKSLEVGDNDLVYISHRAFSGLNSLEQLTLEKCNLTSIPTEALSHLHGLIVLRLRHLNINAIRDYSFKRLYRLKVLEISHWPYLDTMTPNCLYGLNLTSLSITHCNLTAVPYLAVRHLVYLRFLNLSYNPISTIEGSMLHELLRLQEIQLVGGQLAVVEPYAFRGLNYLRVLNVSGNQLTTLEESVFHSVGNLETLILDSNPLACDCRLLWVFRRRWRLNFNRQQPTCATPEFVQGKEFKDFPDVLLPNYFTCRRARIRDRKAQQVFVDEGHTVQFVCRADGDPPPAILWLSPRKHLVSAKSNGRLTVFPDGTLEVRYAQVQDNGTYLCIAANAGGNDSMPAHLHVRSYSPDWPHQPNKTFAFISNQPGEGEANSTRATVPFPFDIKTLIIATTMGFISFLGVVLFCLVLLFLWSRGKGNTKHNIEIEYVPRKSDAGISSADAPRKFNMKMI
Experimental: A) Untransfected CHO-K1 or CHO-K1-hLINGO-1 cells are incubated at 37° C. for 24 hrs with 100 nM 4784, 4785 and 3207 and LINGO-1 detected at the cell surface by a further incubation at room temperature for 30 min with the anti-V5 antibody. The cells are fixed with 4% PFA, blocked with BSA and bound anti-V5 antibody detected using an anti-mouse-IgG (Fc specific)-POD conjugate that is subsequently developed using a 1-Step™ Turbo TMB ELISA kit. The absorbance at 450 nm is taken as a measure of the amount of LINGO-1 at the cell surface (mean of triplicates±STD). A very low level of anti-V5 antibody binding is observed to untransfected CHO-K1 cells. Incubation of CHO-K1-hLINGO-1 cells with anti-LINGO-1 antibodies but not the control IgG4 3207 result in a significant reduction in the amount of LINGO-1 at the cell surface **p<0.01, one-way ANOVA with a Holm-Sidak comparison to the absorbance following incubation with the control IgG4 3207.
To determine the effect of anti-LINGO-1 antibodies on the amount of cell surface LINGO-1, untransfected CHO-K1 or CHO-K1-hLINGO-1 cells (see Example 1) are incubated at 37° C. for 24 hrs with 100 nM 4784, 4785 or 3207 and cell surface LINGO-1 is subsequently detected with an anti-V5 antibody followed by an anti-mouse IgG (Fc specific)-POD conjugate developed with a 1-Step™ Turbo TMB-ELISA kit (Pierce) (FIG. 6A).

[2] = system: binding of LINGO-1 to NgR; test: AP-LINGO-1 binding assay (AP-LINGO-1 binding to NgR:SH-SY5Y cells); design: species or system rat; settings: 2 μM Fab, 1 nM AP-LINGO-1; normalized to control Fab 3207; p<0.01 (FIG. 1)
binding of LINGO-1 to NgR, sequence (as listed by the source): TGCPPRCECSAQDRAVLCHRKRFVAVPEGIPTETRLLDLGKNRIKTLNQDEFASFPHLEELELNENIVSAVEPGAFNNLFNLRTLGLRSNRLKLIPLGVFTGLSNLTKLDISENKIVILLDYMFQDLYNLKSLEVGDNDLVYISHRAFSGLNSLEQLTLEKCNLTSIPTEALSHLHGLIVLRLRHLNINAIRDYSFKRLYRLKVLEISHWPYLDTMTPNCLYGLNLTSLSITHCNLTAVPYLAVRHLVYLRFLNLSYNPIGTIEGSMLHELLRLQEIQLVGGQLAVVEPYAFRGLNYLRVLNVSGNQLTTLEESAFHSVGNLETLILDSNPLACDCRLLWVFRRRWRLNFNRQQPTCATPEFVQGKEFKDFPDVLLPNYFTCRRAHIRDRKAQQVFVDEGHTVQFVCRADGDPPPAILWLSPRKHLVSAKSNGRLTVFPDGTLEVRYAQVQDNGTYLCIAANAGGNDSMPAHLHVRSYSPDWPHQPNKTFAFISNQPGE
Experimental: NgR:SH-SY5Y cells in suspension are incubated with either 1 nM AP or AP-LINGO-1 in the absence or presence of 2 μM of the indicated anti-LINGO-1 Fab or anti-hen lysozyme Fab 3207. Bound AP activity on the cells is measured as absorbance at 405 nm after a 30 min incubation with 1-Step™ PNPP. The specific binding of AP-LINGO-1 is calculated as the difference between the total amount of AP-LINGO-1 binding and the amount of binding with AP alone. The mean percentage inhibition of specific binding (n=3, ±STD) is calculated as the percentile difference between the amount of specific binding of AP-LINGO-1 in the presence of Fab 3207 and the presence of an anti-LINGO-1 Fab.
The PCR product is cleaved with XhoI and XbaI and inserted into the respective sites of the vector APtag-5-NHIS (SEQ ID NO: 26) to generate APtag-5-NHIS-solrLINGO-1. The predicted protein product is the majority of the rat LINGO-1 ectodomain fused at the N-terminus to residues 23-511 of human placental alkaline phosphatase via a 3 amino acid residue linker. […] AP activity of the concentrated supernatant is measured using 1-Step™ PNPP (Pierce) as change in absorbance at 405 nm over time and transformed to a concentration using the following equation (applies for a 96 well plate format with 200 μl PNPP/well): […]

Row | Molecule | amount of cell surface LINGO-1 (absorbance at 450 nm) [1] | inhibition of specific AP-LINGO-1 binding to NgR:SH-SY5Y cells [2]
1 | IgG4 4785: monoclonal human anti-LINGO-1 IgG4 antibody; VL SEQ ID NO: 6, VH SEQ ID NO: 7 (antibody, V domains shown, IgG4; 4785 VH; 4785 VL) VH: QVQLQQSGPGLVKPSQTLSLTCAISGDSVSDNSAAWSWIRQSPGRGLEWLGLIYLRSKWDNDYAVSVKSRITINPDTSKNQFSLQLNSVTPEDTAVYYCARTGRADEFDVWGQGTLVTVSS VL: DIVLTQPPSVSGAPGQRVTISCSGSSSNIGNNYVSWYQQLPGTAPKLLISRNSKRPSGVPDRFSGSKSGTSASLAITGLQSEDEADYYCSTYDTFSIVFGGGTKLTVLG | significantly downregulate | significantly inhibit
2 | IgG4 4784: monoclonal human anti-LINGO-1 IgG4 antibody; VL SEQ ID NO: 4, VH SEQ ID NO: 5 (antibody, V domains shown, IgG4; 4784 VH; 4784 VL) VH: QVQLKESGPALVKPTQTLTLTCTFSGFSLSSSGVGVGWIRQPPGKALEWLAHIGSDDDKYYSTSLKTRLTISKDTSKNQVVLTMTNMDPVDTATYYCARNQQYGDGYPGYFDYWGQGTLVTVSS VL: DIELTQPPSVSVAPGQTARISCSGDNIGNYYVYWYQQKPGQAPVLVIYEDTNRPSGIPERFSGSNSGNTATLTISGTQAEDEADYYCQSYDNLHEQVFGGGTKLTVLG | significantly downregulate | significantly inhibit

— patent US20130071400A1, “LINGO binding molecules and Pharmaceutical Use Thereof” (NOVARTIS AG, priority 2006, published 2013)
